The RNAGym collection of RNA variant scans (doi:10.1093/molbev/msab373)

B1: Azoarcus group I ribozyme (parent)
chain: GUGCCUUGCGCCGGGAAACCACGCAAGGGAUGGUGUCAAAUUCGGCGAAACCUAAGCGCCCGCCCGGGCGUAUGGCAACGCCGAGCCAAGCUUCGGCGCCUGCGCCGAUGAAGGUGUAGAGACUAGACGGCACCCACCUAAGGCAAACGCUAUGGUGAAGGCAUAGUCCAGGGAGUGGCGAAAGUCACACAAACCGG

Variants of: B1
Assay: reverse-splicing fitness (ratio to wild type); higher = more active; in vitro selection; Mg2+ level not given
In short: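 An in vitro group I ribozyme library with randomized positions was T7-transcribed and gel-purified. In triplicate, 10 pmol RNA in EPPS pH 7.5 was reacted with 50 pmoles of a 30-nt RNA substrate for 1 h at 37 °C across several added MgCl2 levels (1–48 mM), then stopped with EDTA. Products were reverse transcribed from a substrate-complementary primer, PCR-amplified and sequenced (HiSeq 4000). Fitness is a variant's read proportion after selection over that before, normalised to wild type.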

Variant	reverse-splicing fitness
GUGCCUUGCGCCGGGAAACCACGCAAGGGAUGGUGUCAAAUUCGGCGAAACCUAAGCGCCCGCCCGGGCGUAUGGCAACGCAGAGCCAAGCUUCGGCGCCUGCGCCGAUGAAGGUGUAGGGACUAGACGGCACCCACCUAAGGCAAACGUUAUGGUGAAGGCAUAGUCCAGGGAGAGGCGAAAGUCACACAAACCGG	0.0125
GUGCCUUGCGCCGGGAAACCACGCAAGGGAUGGUGUCAAAUUCGGCGAAACCUAAGCGCCCGCCCGGGCGUAUGGCAACGCAGAGCCAAGCUUCGGCGCCUGCGCCGAUGAAGGUGUAGGGACUAGACGGCACCCACCUAAGGCAAACGUUAUGGUGAAGGCAUAGUCCAGGGAGCGGCGAAAGUCACACAAACCGG	0.015
GUGCCUUGCGCCGGGAAACCACGCAAGGGAUGGUGUCAAAUUCGGCGAAACCUAAGCGCCCGCCCGGGCGUAUGGCAACGCAGAGCCAAGCUUCGGCGCCUGCGCCGAUGAAGGUGUAGGGACUAGACGGCACCCACCUAAGGCAAACGUUAUGGUGAAGGCAUAGUCCAGGGAGGGGCGAAAGUCACACAAACCGG	0.00727
GUGCCUUGCGCCGGGAAACCACGCAAGGGAUGGUGUCAAAUUCGGCGAAACCUAAGCGCCCGCCCGGGCGUAUGGCAACGCAGAGCCAAGCUUCGGCGCCUGCGCCGAUGAAGGUGUAGGGACUAGACGGCACCCACCUAAGGCAAACGCUAUGGUGAAGGCAUAGUCAAGGGAGUGGCGAAAGUCACACAAACCGG	0.0152
GUGCCUUGCGCCGGGAAACCACGCAAGGGAUGGUGUCAAAUUCGGCGAAACCUAAGCGCCCGCCCGGGCGUAUGGCAACGCAGAGCCAAGCUUCGGCGCCUGCGCCGAUGAAGGUGUAGGGACUAGACGGCACCCACCUAAGGCAAACGCUAUGGUGAAGGCAUAGUCAAGGGAGAGGCGAAAGUCACACAAACCGG	0.0187
GUGCCUUGCGCCGGGAAACCACGCAAGGGAUGGUGUCAAAUUCGGCGAAACCUAAGCGCCCGCCCGGGCGUAUGGCAACGCAGAGCCAAGCUUCGGCGCCUGCGCCGAUGAAGGUGUAGGGACUAGACGGCACCCACCUAAGGCAAACGCUAUGGUGAAGGCAUAGUCAAGGGAGCGGCGAAAGUCACACAAACCGG	0.0236
GUGCCUUGCGCCGGGAAACCACGCAAGGGAUGGUGUCAAAUUCGGCGAAACCUAAGCGCCCGCCCGGGCGUAUGGCAACGCAGAGCCAAGCUUCGGCGCCUGCGCCGAUGAAGGUGUAGGGACUAGACGGCACCCACCUAAGGCAAACGCUAUGGUGAAGGCAUAGUCAAGGGAGGGGCGAAAGUCACACAAACCGG	0.00374
GUGCCUUGCGCCGGGAAACCACGCAAGGGAUGGUGUCAAAUUCGGCGAAACCUAAGCGCCCGCCCGGGCGUAUGGCAACGCAGAGCCAAGCUUCGGCGCCUGCGCCGAUGAAGGUGUAGGGACUAGACGGCACCCACCUAAGGCAAACGCUAUGGUGAAGGCAUAGUCGAGGGAGUGGCGAAAGUCACACAAACCGG	0.0233
GUGCCUUGCGCCGGGAAACCACGCAAGGGAUGGUGUCAAAUUCGGCGAAACCUAAGCGCCCGCCCGGGCGUAUGGCAACGCAGAGCCAAGCUUCGGCGCCUGCGCCGAUGAAGGUGUAGGGACUAGACGGCACCCACCUAAGGCAAACGCUAUGGUGAAGGCAUAGUCGAGGGAGAGGCGAAAGUCACACAAACCGG	0.0203
GUGCCUUGCGCCGGGAAACCACGCAAGGGAUGGUGUCAAAUUCGGCGAAACCUAAGCGCCCGCCCGGGCGUAUGGCAACGCAGAGCCAAGCUUCGGCGCCUGCGCCGAUGAAGGUGUAGGGACUAGACGGCACCCACCUAAGGCAAACGCUAUGGUGAAGGCAUAGUCGAGGGAGCGGCGAAAGUCACACAAACCGG	0.0274
GUGCCUUGCGCCGGGAAACCACGCAAGGGAUGGUGUCAAAUUCGGCGAAACCUAAGCGCCCGCCCGGGCGUAUGGCAACGCAGAGCCAAGCUUCGGCGCCUGCGCCGAUGAAGGUGUAGGGACUAGACGGCACCCACCUAAGGCAAACGCUAUGGUGAAGGCAUAGUCGAGGGAGGGGCGAAAGUCACACAAACCGG	0.00368
GUGCCUUGCGCCGGGAAACCACGCAAGGGAUGGUGUCAAAUUCGGCGAAACCUAAGCGCCCGCCCGGGCGUAUGGCAACGCAGAGCCAAGCUUCGGCGCCUGCGCCGAUGAAGGUGUAGGGACUAGACGGCACCCACCUAAGGCAAACGCUAUGGUGAAGGCAUAGUCUAGGGAGUGGCGAAAGUCACACAAACCGG	0.0166
GUGCCUUGCGCCGGGAAACCACGCAAGGGAUGGUGUCAAAUUCGGCGAAACCUAAGCGCCCGCCCGGGCGUAUGGCAACGCAGAGCCAAGCUUCGGCGCCUGCGCCGAUGAAGGUGUAGGGACUAGACGGCACCCACCUAAGGCAAACGCUAUGGUGAAGGCAUAGUCUAGGGAGAGGCGAAAGUCACACAAACCGG	0.0233
GUGCCUUGCGCCGGGAAACCACGCAAGGGAUGGUGUCAAAUUCGGCGAAACCUAAGCGCCCGCCCGGGCGUAUGGCAACGCAGAGCCAAGCUUCGGCGCCUGCGCCGAUGAAGGUGUAGGGACUAGACGGCACCCACCUAAGGCAAACGCUAUGGUGAAGGCAUAGUCUAGGGAGCGGCGAAAGUCACACAAACCGG	0.0175
GUGCCUUGCGCCGGGAAACCACGCAAGGGAUGGUGUCAAAUUCGGCGAAACCUAAGCGCCCGCCCGGGCGUAUGGCAACGCAGAGCCAAGCUUCGGCGCCUGCGCCGAUGAAGGUGUAGGGACUAGACGGCACCCACCUAAGGCAAACGCUAUGGUGAAGGCAUAGUCUAGGGAGGGGCGAAAGUCACACAAACCGG	0.00475
GUGCCUUGCGCCGGGAAACCACGCAAGGGAUGGUGUCAAAUUCGGCGAAACCUAAGCGCCCGCCCGGGCGUAUGGCAACGCAGAGCCAAGCUUCGGCGCCUGCGCCGAUGAAGGUGUAGGGACUAGACGGCACCCACCUAAGGCAAACGCUAUGGUGAAGGCAUAGUCCAGGGAGAGGCGAAAGUCACACAAACCGG	0.0137
GUGCCUUGCGCCGGGAAACCACGCAAGGGAUGGUGUCAAAUUCGGCGAAACCUAAGCGCCCGCCCGGGCGUAUGGCAACGCAGAGCCAAGCUUCGGCGCCUGCGCCGAUGAAGGUGUAGGGACUAGACGGCACCCACCUAAGGCAAACGCUAUGGUGAAGGCAUAGUCCAGGGAGCGGCGAAAGUCACACAAACCGG	0.0184
GUGCCUUGCGCCGGGAAACCACGCAAGGGAUGGUGUCAAAUUCGGCGAAACCUAAGCGCCCGCCCGGGCGUAUGGCAACGCAGAGCCAAGCUUCGGCGCCUGCGCCGAUGAAGGUGUAGGGACUAGACGGCACCCACCUAAGGCAAACGCUAUGGUGAAGGCAUAGUCCAGGGAGGGGCGAAAGUCACACAAACCGG	0.00511
GUGCCUUGCGCCGGGAAACCACGCAAGGGAUGGUGUCAAAUUCGGCGAAACCUAAGCGCCCGCCCGGGCGUAUGGCAACGCAGAGCCAAGCUUCGGCGCCUGCGCCGAUGAAGGUGUAGUGACUAGACGGCACCCACCUAAGGCAAACGCUAUGGUGAAGGCAUAGUCCAGGGAGUGGCGAAAGUCACACAAACCGG	0.154
GUGCCUUGCGCCGGGAAACCACGCAAGGGAUGGUGUCAAAUUCGGCGAAACCUAAGCGCCCGCCCGGGCGUAUGGCAACGCAGAGCCAAGCUUCGGCGCCUGCGCCGAUGAAGGUGUAGUGACUAGACGGCACCCACCUAAGGCCAACGCUAUGGUGAAGGCAUAGUCCAGGGAGUGGCGAAAGUCACACAAACCGG	0.128
GUGCCUUGCGCCGGGAAACCACGCAAGGGAUGGUGUCAAAUUCGGCGAAACCUAAGCGCCCGCCCGGGCGUAUGGCAACGCAGAGCCAAGCUUCGGCGCCUGCGCCGAUGAAGGUGUAGUGACUAGACGGCACCCACCUAAGGCCAACGAUAUGGUGAAGGCAUAGUCCAGGGAGUGGCGAAAGUCACACAAACCGG	0.00898
GUGCCUUGCGCCGGGAAACCACGCAAGGGAUGGUGUCAAAUUCGGCGAAACCUAAGCGCCCGCCCGGGCGUAUGGCAACGCAGAGCCAAGCUUCGGCGCCUGCGCCGAUGAAGGUGUAGUGACUAGACGGCACCCACCUAAGGCCAACGAUAUGGUGAAGGCAUAGUCAAGGGAGUGGCGAAAGUCACACAAACCGG	0.00256
GUGCCUUGCGCCGGGAAACCACGCAAGGGAUGGUGUCAAAUUCGGCGAAACCUAAGCGCCCGCCCGGGCGUAUGGCAACGCAGAGCCAAGCUUCGGCGCCUGCGCCGAUGAAGGUGUAGUGACUAGACGGCACCCACCUAAGGCCAACGAUAUGGUGAAGGCAUAGUCAAGGGAGAGGCGAAAGUCACACAAACCGG	0.00185
GUGCCUUGCGCCGGGAAACCACGCAAGGGAUGGUGUCAAAUUCGGCGAAACCUAAGCGCCCGCCCGGGCGUAUGGCAACGCAGAGCCAAGCUUCGGCGCCUGCGCCGAUGAAGGUGUAGUGACUAGACGGCACCCACCUAAGGCCAACGAUAUGGUGAAGGCAUAGUCAAGGGAGCGGCGAAAGUCACACAAACCGG	0.00238
GUGCCUUGCGCCGGGAAACCACGCAAGGGAUGGUGUCAAAUUCGGCGAAACCUAAGCGCCCGCCCGGGCGUAUGGCAACGCAGAGCCAAGCUUCGGCGCCUGCGCCGAUGAAGGUGUAGUGACUAGACGGCACCCACCUAAGGCCAACGAUAUGGUGAAGGCAUAGUCAAGGGAGGGGCGAAAGUCACACAAACCGG	0.00198
GUGCCUUGCGCCGGGAAACCACGCAAGGGAUGGUGUCAAAUUCGGCGAAACCUAAGCGCCCGCCCGGGCGUAUGGCAACGCAGAGCCAAGCUUCGGCGCCUGCGCCGAUGAAGGUGUAGUGACUAGACGGCACCCACCUAAGGCCAACGAUAUGGUGAAGGCAUAGUCGAGGGAGUGGCGAAAGUCACACAAACCGG	0.00223
GUGCCUUGCGCCGGGAAACCACGCAAGGGAUGGUGUCAAAUUCGGCGAAACCUAAGCGCCCGCCCGGGCGUAUGGCAACGCAGAGCCAAGCUUCGGCGCCUGCGCCGAUGAAGGUGUAGUGACUAGACGGCACCCACCUAAGGCCAACGAUAUGGUGAAGGCAUAGUCGAGGGAGAGGCGAAAGUCACACAAACCGG	0.00253
GUGCCUUGCGCCGGGAAACCACGCAAGGGAUGGUGUCAAAUUCGGCGAAACCUAAGCGCCCGCCCGGGCGUAUGGCAACGCAGAGCCAAGCUUCGGCGCCUGCGCCGAUGAAGGUGUAGUGACUAGACGGCACCCACCUAAGGCCAACGAUAUGGUGAAGGCAUAGUCGAGGGAGCGGCGAAAGUCACACAAACCGG	0.00352
GUGCCUUGCGCCGGGAAACCACGCAAGGGAUGGUGUCAAAUUCGGCGAAACCUAAGCGCCCGCCCGGGCGUAUGGCAACGCAGAGCCAAGCUUCGGCGCCUGCGCCGAUGAAGGUGUAGUGACUAGACGGCACCCACCUAAGGCCAACGAUAUGGUGAAGGCAUAGUCGAGGGAGGGGCGAAAGUCACACAAACCGG	0.00139
GUGCCUUGCGCCGGGAAACCACGCAAGGGAUGGUGUCAAAUUCGGCGAAACCUAAGCGCCCGCCCGGGCGUAUGGCAACGCAGAGCCAAGCUUCGGCGCCUGCGCCGAUGAAGGUGUAGUGACUAGACGGCACCCACCUAAGGCCAACGAUAUGGUGAAGGCAUAGUCUAGGGAGUGGCGAAAGUCACACAAACCGG	0.00225
